From paper PMC6411929, “H-NS uses an autoinhibitory conformational switch for environment-controlled gene silencing” (Nucleic Acids Research, 2018)

Experiments:
[1] = test system: H-NS full length (H-NSFL); assay: fluorescence anisotropy; conditions: 25 C, 50 mM NaCl, 2 mM Mg2+, MST: 50 mM Tris-HCl, 2 mM MgCl2, 0.005% Tween-20, pH not stated, anisotropy: 20 mM HEPES pH 7.5, 50 mM NaCl, 2 mM MgCl2, 25 or 37 C, 20 nM DNA
[2] = test system: H-NS full length (H-NSFL); assay: MST; conditions: room temperature (25 C), 50 mM NaCl, 2 mM Mg2+, MST: 50 mM Tris-HCl, 2 mM MgCl2, 0.005% Tween-20, pH not stated, anisotropy: 20 mM HEPES pH 7.5, 50 mM NaCl, 2 mM MgCl2, 25 or 37 C, 20 nM DNA
[3] = target: H-NSΔs2 with an N-terminal mCherry fusion (mChH-NSΔs2) (Salmonella typhimurium) (UniProt P0A1S2); assay: dynamic light scattering; hydrodynamic radius against temperature, 5 to 60°C; protein at 125 to 500 μM; 150, 250 or 500 mM NaCl; pH 6, 7 or 8 (100 mM MES, MOPS or HEPES)
[4] = target: H-NS C-terminus (84–137) (Salmonella typhimurium) (UniProt P0A1S2); assay: MST; 20 nM NT-647-labelled H-NS C-terminus, serial dilutions of the unlabelled partner; 50 mM Tris-HCl, 50 mM NaCl, 2 mM MgCl2, 0.005% Tween-20; 30 min incubation; single-binding-site fit; also repeated at 100, 250, 500 and 1000 mM NaCl
[5] = test system: H-NS C-terminal region 84-137; assay: MST; conditions: MST: 50 mM Tris-HCl, 50 mM NaCl, 2 mM MgCl2, 0.005% Tween-20, pH not stated; anisotropy: 20 mM HEPES pH 7.5, 50 mM NaCl, 2 mM MgCl2, 25 or 37 C, 20 nM DNA
[6] = target: the molecule itself; assay: SAXS; H-NS 2-57,C21S in solution at 1-4 mg/ml, 10 to 42°C and a range of salt and buffer conditions (150 mM NaCl, 1 mM EDTA, 20 mM Tris pH 7.5 in Figure 2B); patterns compared with parallel and antiparallel site1 dimer models

Molecule: 101 bp DNA with four consensus H-NS motifs
- Kd [1]: 10.2 µM
- Kd [2]: 7.4 µM

Molecule: H-NSΔs2 with an N-terminal mCherry fusion (mChH-NSΔs2) (from UniProt P0A1S2 1-137) (natural protein)
- stoichiometry N [3]: 2

Molecule: H-NS N-terminus (2–57), unlabelled, pET-M construct with N-terminal His6-tag (from UniProt P0A1S2 2-57) (domain or fragment)
- Kd [4]: 4.1 µM

Molecule: 13 bp AT-rich DNA
- Kd [5]: 14.5 µM

B1: Salmonella typhimurium H-NS_(2–57,C21S) (domain or fragment)
chain: SEALKILNNIRTLRAQARESTLETLEEMLEKLEVVVNERREEESAAAAEVEERTRK
notes: H-NS, Salmonella typhimurium, residues 2-57 (site1) with C21S
- stoichiometry N [6]: 2
